From publication PMC314469, “Protein Interaction Networks by Proteome Peptide Scanning” (PLoS Biology, 2004)

T1: amphyphisin SH3 (AMPH_HUMAN), P49418
T1 chain: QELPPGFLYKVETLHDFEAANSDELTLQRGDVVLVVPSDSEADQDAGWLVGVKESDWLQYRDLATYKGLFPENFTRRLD


Tests used:
[1] = molecular target: endophilin SH3 (SH3G2_HUMAN), Q99962; test: SPOT array
[2] = molecular target: T1, amphyphisin SH3 (AMPH_HUMAN), P49418; test: SPOT array

normalised SPOT signal, Boehringer light units (BLU); mean over the file's lines of this peptide [1]	normalised SPOT signal, Boehringer light units (BLU); mean over the file's lines of this peptide [2]	Binder
189	35.4	SSKPIKRPVLDPFI [Q96AA8 422-435]
2540	44.7	SQALPPRPPPPAPV [Q13330 692-706]
130	78.5	SQPGPAKPPAQPSG [Q9Y6V0 287-301]
33.5	60.1	SRKNLKRPIAHLPS [Q13112 270-283]
681	51.9	SSHSPYRPPTNYRN [Q8TEB6 103-117]
22000	1780	SPSVPKRPKLPAPT [P18887 266-279]
3230	106	SQGPPPRPGKPEGP [Q9UCT9 1-14]
37.4	43.6	SSDWLRRPLGEDNQ [Q9Y6S1 96-109]
56.3	31.7	SPVHLRRPQSPGAS [Q9Y556 324-337]
10900	1550	SQRRPRRPPTVFRL [Q96Q00 325-339]
132	103	SQGPPPRPGKPEGS [Q04118 215-228]
10200	20600	SRGPPRRPPRSVKL [Q96DR3 69-83]
1850	7270	SSRRPVRPGRRGLG [Q14160 1547-1560]
21.5	17	SQNEPKRPMSGEYG [Q9Y6X4 283-296]
195	1640	SSPLLKRPVRTQAV [Q9Y5M0 381-394]
1520	713	SPVLPARPPPPPLP [O75412 1038-1052]
4080	399	SPVLPARPPPPPLS [O00508 1114-1128]
15300	14100	SQIPPQRPQRDQRV [Q13283 290-303]
181	614	SSPEPPRPAKRPRR [Q9P2A7 954-967]
775	45.1	SQQPPSRPPHLPVE [Q9UPQ2 54-68]
53.9	21.1	SQEILRRPIVASEL [Q9UHW3 40-53]

normalised SPOT signal, Boehringer light units (BLU); mean over the file's lines of this peptide [1]	normalised SPOT signal, Boehringer light units (BLU); mean over the file's lines of this peptide [2]	Binder
110	1890	SSEEPRRPLRSDMV [Q9H6D1 6-19]
619	51.9	SSPGPKRPGNTLRK [O75962 1703-1716]
0.9	30.4	SRNIFKRPLGSRIE [P12111 1320-1333]
1800	72.6	SSGRPGRPPGPAAA [Q99491 157-171]
7.4	31.8	SSNTIRRPRNYSVG [O60825 472-485]
2210	236	SRSPPKKPPKRTSS [O60585 365-379]
102	621	SQAFIYRPIRQRVY [Q9NU43 22-35]
69.8	1370	SQGPLQRPSRLVFT [Q9UK00 141-154]
202	842	SRLHFGRPRRADYL [Q13629 53-66]
10.4	71.5	SSGILKRPQTLAIP [Q9Y2W3 232-245]
103	120	SQGPPPRPGKPEGQ [Q04118 68-81]
87.4	118	SQSFIIRPQKEGER [Q05397 355-368]
109	119	SSRDLSRPPKKGEL [O94930 369-382]
577	60.5	SDGNPRRPSPVLRH [P51172 134-147]
1200	1270	SREGPARPYRLKPG [Q9ULL4 1157-1170]
112	66.5	SPTVPIKPPSIPNG [Q13557 471-485]
99.7	52.5	SQQNFHRPVKVRKK [Q9UI45 537-550]
50.4	50.5	SSSGPKRPQDKVAV [P21399 369-382]
122	81.4	SSGPPPKPPVSSGS [Q9NR59 803-817]
185	214	SRLTLLRPEKDGEA [Q9H7S7 483-496]
341	4730	SSTFLQRPIRKPSK [Q9UI27 293-306]
